# Test results as given in US9982265B2, “Inhibition of Bruton's tyrosine kinase (Btk) in the lung to treat severe lung inflammation and lung injury” (BOARD OF REGENTS, THE UNIVERSITY OF TEXAS SYSTEM, priority 2014, dated 2018).
# Assays:
# thrombomodulin (TM) = test: Thrombomodulin in BAL fluid by Western blot, LPS/IC induced ALI; type: in vivo, mice; details: FIG. 6D
# Method: Western Blotting: BAL fluids were subjected to SDS PAGE electrophoresis, transferred onto PVDF membrane and further evaluated for the presence of thrombomodulin using anti-mouse TM antibody (M-17; Santa Cruz Biotechnology, Santa Cruz, Calif.). In some experiments cell culture media or cell lysates were analyzed for level of MPO or actin (EMD Millipore, Billerica, Mass. and Santa Cruz Biotechnology, respectively) or phospho-p40 phox (Santa Cruz Biotechnology).
# Endothelial damage in this ALI model was also examined by assessing the release of thrombomodulin (TM), which is a membrane protein expressed on the capillary endothelium (40, 52). A Western Blot analysis of BAL fluid samples was performed (FIG. 6D) from control mice (Saline), mice with LPS/IC induced ALI, and mice treated with siRNA specific for Btk, or MMP-9, or control siRNA. The bar graph in FIG. 6D includes data from 3 experiments. For each repetition a fold over a corresponding control was calculated. Means of all repetitions as well as associated standard deviations were graphed. […] The same was true for mice that received nonspecific control siRNA (p<0.05).
# MMP-9 = test: Expression of MMP-9 in alveolar neutrophils of treated ALI mice, laser confocal microscopy; type: in vivo; details: LPS/IC ALI; FIGS. 6A and B
# Method: Laser Confocal Microscopy: Purified alveolar neutrophils mounted on cytospins were incubated with the following primary antibodies: anti-mouse Btk, anti-mouse MyD88, anti-mouse MMP-9 (Santa Cruz Biotechnology), and anti-mouse pBtk (Invitrogen, Grand Island, N.Y.). Species specific antibodies conjugated with fluorescent dyes were subsequently applied to slides. Lung tissue sections, processed as routinely done in our laboratory (26, 28), were incubated with anti-mouse FcγRIII antibody (R&D Systems, Minneapolis, Minn.), or anti-mouse MMP-9 antibody (Santa Cruz Biotechnology), or with anti-neutrophil (Ly6G1A8) antibody (Bio X Cell, West Lebanon, N.H.) followed by fluorescence dye-conjugated secondary antibodies. Hoechst 33342 (Calbiochem, San Diego, Calif.) was employed to stain nuclei. Laser confocal microscopy was performed using PerkinElmer Ultra VIEW LCI confocal imaging system with Nikon TE2000-S fluorescence microscope and PlanApox60 immersion oil objective (numerical aperture [NA] 1.4) at room temperature. Ultra VIEW Imaging Suite software (version 5.5.0.4) was used for image processing.
# Neutrophils are implicated in ALI because of various substances released from granules into the area of inflammation. MMP-9 (gelatinase B) is one of the most extensively studied MMPs in the context of ALI. […]
substance,measurement,setting,value
"Cont siRNA: control siRNA #8 (SEQ ID NO:26/27) conjugated to F(ab′)2 fragments of Ly6G1A8 (chain 1 UUCCUCUCCACGCGCAGUACAUUUA; chain 2 AAGGAGAGGUGCGCGUCAUGUAAAU; conjugated to antibody F(ab')2 fragment, attachment not given here; one strand is listed 3' to 5')",levels of thrombomodulin (TM) in BAL fluid,thrombomodulin (TM),significantly increased levels
same,MMP-9 expression in lung neutrophils,MMP-9,detectable
